T1: human beta klotho protein (soluble, used in Biacore) (human, UniProt Q86Z14 53-997, limits assumed)
T1 construct: also called HuKLB; huKLB
T1 sequence: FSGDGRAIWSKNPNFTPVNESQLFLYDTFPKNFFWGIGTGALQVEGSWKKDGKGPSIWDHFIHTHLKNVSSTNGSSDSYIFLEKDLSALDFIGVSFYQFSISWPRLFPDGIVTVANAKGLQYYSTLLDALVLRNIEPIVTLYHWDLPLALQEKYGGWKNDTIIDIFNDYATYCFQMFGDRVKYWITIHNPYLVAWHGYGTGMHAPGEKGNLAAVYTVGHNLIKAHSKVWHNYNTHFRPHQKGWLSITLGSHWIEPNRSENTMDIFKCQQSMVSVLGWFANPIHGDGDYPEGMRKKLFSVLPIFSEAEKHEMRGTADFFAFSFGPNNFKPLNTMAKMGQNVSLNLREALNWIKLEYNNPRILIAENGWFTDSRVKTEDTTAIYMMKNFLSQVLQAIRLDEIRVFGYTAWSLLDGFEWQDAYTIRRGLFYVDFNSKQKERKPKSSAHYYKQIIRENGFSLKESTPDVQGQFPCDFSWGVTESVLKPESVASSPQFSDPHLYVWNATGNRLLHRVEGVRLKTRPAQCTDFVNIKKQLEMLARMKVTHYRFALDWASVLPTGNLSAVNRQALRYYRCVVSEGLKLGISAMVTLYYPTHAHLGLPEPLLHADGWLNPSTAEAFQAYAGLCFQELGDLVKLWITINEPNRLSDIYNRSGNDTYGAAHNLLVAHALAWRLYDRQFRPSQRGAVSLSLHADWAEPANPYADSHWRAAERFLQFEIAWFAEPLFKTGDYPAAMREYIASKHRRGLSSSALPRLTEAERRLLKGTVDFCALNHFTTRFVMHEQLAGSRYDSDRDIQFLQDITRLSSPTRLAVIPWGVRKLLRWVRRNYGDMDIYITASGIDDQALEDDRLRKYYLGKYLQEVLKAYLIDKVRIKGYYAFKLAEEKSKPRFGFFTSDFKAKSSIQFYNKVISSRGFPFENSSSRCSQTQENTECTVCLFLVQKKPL

T2: cynomolgus monkey beta klotho protein (soluble, used in Biacore) (cynomolgus monkey (Macaca fascicularis), UniProt Q86Z14 53-996 (human entry), limits assumed)
T2 construct: Protein in solution; also called Cyno KLB; cyKLB
T2 chain: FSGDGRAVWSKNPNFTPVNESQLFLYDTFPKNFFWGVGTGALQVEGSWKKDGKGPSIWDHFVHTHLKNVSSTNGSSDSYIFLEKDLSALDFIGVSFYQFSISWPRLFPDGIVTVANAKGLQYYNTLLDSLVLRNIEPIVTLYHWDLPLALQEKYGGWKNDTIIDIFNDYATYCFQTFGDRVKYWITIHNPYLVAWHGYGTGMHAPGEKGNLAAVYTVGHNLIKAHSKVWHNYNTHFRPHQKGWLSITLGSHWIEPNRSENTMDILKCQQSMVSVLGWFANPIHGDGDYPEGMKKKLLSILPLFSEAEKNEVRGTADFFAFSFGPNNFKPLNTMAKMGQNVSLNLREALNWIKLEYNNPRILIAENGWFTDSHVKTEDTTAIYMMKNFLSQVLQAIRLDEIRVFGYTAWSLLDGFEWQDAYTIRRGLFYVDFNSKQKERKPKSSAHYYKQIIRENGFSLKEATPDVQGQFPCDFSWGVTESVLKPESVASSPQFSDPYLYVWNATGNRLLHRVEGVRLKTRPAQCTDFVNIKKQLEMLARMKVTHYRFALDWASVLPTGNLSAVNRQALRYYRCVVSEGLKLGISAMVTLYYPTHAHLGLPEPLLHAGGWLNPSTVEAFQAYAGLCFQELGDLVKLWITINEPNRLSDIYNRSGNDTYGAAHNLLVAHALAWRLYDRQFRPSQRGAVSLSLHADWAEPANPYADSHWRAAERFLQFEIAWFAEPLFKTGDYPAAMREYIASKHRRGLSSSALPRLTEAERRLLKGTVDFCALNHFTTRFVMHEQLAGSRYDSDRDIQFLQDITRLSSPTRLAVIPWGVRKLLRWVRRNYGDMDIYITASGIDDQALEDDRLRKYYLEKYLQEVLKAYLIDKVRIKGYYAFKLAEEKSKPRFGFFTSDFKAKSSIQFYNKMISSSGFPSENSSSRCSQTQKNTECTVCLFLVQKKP


Columns and labels:
[1] = target: T1, human beta klotho protein (soluble, …); experiment: Biacore SPR, antibody captured on anti-mouse Fc, KLB as analyte (1.56-25 nM), 25 C
Experimental: (§1) Binding affinity measurements were also made in additional Biacore based assays. For example, equilibrium dissociation constant (KD) measurements were carried out with purified antibodies to evaluate their binding to human beta klotho and cyno beta klotho. As mentioned above, anti-mouse Fc antibody (Sigma-Aldrich, St. Louis, Mo.) was immobilized on all four flow cells of a CM5 chip using amine coupling reagents (GE Healthcare LifeSciences, Piscataway, N.J.). Purified antibodies were captured (˜100 RUs) on flow cells 2, 3 and 4 using flow cell 1 as a reference. This was followed by injection of different concentrations of human or cyno beta klotho (1.56 nM to 25 nM, two-fold dilutions in PBS-P buffer) at a flow rate of 70 μL/min and the binding kinetics were evaluated at 25° C.

[2] = target: T2, cynomolgus monkey beta klotho protein …; experiment: as above
Experimental: as §1

[3] = target: human beta klotho / human FGFR3c on L6 cells (human, UniProt Q86Z14 1-1044; P22607 23-806); experiment: cell-based or functional assay
[4] = target: human beta klotho / human FGFR4 on L6 cells (human, UniProt Q86Z14 1-1044; P22455 22-802); experiment: cell-based or functional assay
[5] = target: human beta klotho / human FGFR1c receptor complex on cells (human, UniProt Q86Z14 1-1044; P11362 22-822); experiment: cell-based or functional assay
[6] = target: cynomolgus beta klotho / human FGFR1c receptor complex on cells (cynomolgus monkey (Macaca …)); experiment: cell-based or functional assay
Sequence of cynomolgus beta klotho / human FGFR1c receptor complex on cells (cynomolgus monkey (Macaca …)) (chain, as listed by the source limits assumed, chain 1 of 2): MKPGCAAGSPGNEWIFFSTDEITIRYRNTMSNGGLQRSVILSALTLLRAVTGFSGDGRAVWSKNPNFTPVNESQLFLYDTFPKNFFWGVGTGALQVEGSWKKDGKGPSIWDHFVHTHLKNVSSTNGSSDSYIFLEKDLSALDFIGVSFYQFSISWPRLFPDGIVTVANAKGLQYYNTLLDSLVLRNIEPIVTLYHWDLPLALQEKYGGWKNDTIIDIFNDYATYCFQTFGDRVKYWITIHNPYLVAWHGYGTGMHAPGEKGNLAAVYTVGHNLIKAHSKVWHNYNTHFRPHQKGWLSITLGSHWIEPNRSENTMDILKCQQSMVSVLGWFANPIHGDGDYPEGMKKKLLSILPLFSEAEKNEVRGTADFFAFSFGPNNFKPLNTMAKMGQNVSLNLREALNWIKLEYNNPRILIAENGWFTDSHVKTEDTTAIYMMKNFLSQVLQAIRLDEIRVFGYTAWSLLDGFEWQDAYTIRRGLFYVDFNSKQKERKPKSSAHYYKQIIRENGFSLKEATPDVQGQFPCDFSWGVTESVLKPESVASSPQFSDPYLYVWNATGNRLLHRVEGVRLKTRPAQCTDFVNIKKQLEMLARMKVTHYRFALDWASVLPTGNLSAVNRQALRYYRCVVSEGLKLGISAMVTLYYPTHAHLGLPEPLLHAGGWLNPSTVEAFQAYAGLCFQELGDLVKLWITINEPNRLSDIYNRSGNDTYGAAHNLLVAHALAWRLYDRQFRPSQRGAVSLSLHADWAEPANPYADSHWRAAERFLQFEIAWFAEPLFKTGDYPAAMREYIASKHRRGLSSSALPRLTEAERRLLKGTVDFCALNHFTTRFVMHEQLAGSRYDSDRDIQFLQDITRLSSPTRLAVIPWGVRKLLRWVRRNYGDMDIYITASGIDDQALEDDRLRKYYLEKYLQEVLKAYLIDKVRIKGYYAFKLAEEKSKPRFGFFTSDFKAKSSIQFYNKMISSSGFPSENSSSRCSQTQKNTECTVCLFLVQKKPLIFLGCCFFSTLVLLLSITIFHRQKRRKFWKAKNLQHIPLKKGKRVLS
Sequence of cynomolgus beta klotho / human FGFR1c receptor complex on cells (cynomolgus monkey (Macaca …)) (chain, as listed by the source limits assumed, chain 2 of 2): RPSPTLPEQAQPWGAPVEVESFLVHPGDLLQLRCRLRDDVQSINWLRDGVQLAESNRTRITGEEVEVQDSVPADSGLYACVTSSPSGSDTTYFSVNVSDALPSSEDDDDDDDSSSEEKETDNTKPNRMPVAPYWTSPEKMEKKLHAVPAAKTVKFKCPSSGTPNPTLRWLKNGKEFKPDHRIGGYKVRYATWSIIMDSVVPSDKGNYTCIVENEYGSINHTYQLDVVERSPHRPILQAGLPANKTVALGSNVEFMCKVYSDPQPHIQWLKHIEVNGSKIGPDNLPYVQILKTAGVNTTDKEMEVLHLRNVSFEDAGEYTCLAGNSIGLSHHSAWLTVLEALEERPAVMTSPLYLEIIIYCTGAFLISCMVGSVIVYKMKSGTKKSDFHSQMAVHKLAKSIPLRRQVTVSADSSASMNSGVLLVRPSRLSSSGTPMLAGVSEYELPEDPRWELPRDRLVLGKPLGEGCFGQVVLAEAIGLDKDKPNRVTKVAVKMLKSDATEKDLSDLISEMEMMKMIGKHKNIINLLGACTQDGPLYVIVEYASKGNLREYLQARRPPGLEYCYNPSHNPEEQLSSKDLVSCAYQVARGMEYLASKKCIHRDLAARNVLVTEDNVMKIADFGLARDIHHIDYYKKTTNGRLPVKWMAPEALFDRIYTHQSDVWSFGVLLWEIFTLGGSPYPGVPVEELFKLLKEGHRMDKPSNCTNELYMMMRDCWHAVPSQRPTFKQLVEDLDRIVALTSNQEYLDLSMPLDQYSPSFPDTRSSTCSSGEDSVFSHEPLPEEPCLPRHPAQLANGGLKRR

Sequence of human beta klotho / human FGFR4 on L6 cells (P22455 22-802, one chain of several): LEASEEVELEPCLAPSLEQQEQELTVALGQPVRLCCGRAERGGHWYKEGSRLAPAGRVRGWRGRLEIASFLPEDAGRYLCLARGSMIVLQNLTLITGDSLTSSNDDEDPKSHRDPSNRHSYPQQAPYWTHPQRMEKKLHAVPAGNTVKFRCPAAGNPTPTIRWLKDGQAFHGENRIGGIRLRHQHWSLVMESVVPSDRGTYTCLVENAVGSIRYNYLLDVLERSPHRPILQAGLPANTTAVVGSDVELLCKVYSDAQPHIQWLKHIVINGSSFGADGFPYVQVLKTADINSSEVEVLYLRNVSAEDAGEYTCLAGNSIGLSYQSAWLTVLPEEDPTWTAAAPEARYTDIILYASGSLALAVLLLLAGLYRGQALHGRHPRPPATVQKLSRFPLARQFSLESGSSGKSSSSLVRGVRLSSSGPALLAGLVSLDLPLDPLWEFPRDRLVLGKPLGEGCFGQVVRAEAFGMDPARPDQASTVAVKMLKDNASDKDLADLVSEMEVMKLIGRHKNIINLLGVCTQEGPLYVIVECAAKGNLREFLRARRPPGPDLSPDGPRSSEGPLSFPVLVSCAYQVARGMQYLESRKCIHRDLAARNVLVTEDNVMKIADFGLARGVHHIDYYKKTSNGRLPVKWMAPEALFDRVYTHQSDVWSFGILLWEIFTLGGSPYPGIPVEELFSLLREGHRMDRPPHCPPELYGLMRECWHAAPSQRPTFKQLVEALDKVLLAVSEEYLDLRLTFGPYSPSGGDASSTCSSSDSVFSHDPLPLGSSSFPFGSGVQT
Sequence of human beta klotho / human FGFR1c receptor complex on cells (P11362 22-822 limits assumed, one chain of several): as the sequence (chain, as listed by the source limits assumed, chain 2 of 2) above
Sequence of human beta klotho / human FGFR3c on L6 cells (P22607 23-806, one chain of several): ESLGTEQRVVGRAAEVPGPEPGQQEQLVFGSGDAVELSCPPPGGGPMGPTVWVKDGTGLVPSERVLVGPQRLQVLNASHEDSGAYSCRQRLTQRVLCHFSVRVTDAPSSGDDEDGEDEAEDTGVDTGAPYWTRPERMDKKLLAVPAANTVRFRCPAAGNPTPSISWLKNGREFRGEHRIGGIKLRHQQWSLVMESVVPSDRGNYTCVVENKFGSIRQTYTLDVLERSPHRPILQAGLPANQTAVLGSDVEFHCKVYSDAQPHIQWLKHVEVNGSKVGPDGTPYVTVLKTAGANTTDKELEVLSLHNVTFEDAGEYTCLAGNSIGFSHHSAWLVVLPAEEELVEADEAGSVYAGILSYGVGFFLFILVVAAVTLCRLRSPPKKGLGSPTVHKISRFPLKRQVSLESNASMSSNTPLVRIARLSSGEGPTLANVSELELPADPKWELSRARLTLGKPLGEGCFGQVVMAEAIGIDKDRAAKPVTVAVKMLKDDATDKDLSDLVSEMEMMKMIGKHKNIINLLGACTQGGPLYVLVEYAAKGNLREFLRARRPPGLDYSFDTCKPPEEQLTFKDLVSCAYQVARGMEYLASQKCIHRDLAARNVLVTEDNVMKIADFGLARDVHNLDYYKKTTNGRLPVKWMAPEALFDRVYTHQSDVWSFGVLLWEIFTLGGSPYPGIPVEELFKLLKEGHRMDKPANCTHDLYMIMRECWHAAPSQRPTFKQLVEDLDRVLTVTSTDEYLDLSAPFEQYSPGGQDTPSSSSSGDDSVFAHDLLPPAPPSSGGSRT

| Binder | Kd [1] [nM] | Kd [2] [nM] | L6 huKLB/R3c reporter assay EC50 [3] [nM] | L6 huKLB/R4 reporter assay EC50 [4] [nM] | L6 huKLB/R1c reporter assay EC50 [5] [nM] | HEK293 cynoKLB/R1c reporter assay EC50, Experiment - A [6] [nM] | HEK293 cynoKLB/R1c reporter assay EC50, Experiment - B [6] [nM] |
| --- | --- | --- | --- | --- | --- | --- | --- |
| antibody 5F7 (antibody, V domains shown, Murine monoclonal antibody) VH: QVQPQESGPELVKPGALVKISCKASGYTFTRYDINWVKQRPGQGLEWIGWIYPGDISTKYNEKFKGKATLTADKSSSTAYMQLNSLTSENSAVYFCARSDYYGSRSFVYWGQGTLVTVSA VL: DIVLTQSPASLAVSLGQRATISCRASKSVSTSGYSYMHWYQQKPGQPPKLLIYLASNLESGVPARFSGSGSGTDFTLNIHPVEEEDAATYYCQHSRELPYTFGGGTKVEIK | 1.7 | 2.5 |  |  |  |  |  |
| antibody 5H23 (antibody, V domains shown, Murine monoclonal antibody from hybridoma; also called 5H23-Alexa647 (labelled form)) VH: QVQLQQSGPELVKPGALVKISCKASGYTFTSYDINWVKQRPGQGLEWIGWIYPGDGSTKYNEKFKGKATLTADKSSRTAYMQLSSLTSENSAVYFCARSDYYGSRSFAYWGQGTLVTVSA VL: DIVLTQSPASLAVSLGQRATISCRASKSVSTSGYVYMHWNQQKPGQPPKLLIYLASYLESGVPARFSGSGSGTDFTLNIHPVEEEDAAIYYCQHSRDLTFPFGGGTKLEIK |  | 0.72 | > 67 | > 67 | 0.28 | 0.165 | 0.218 |
| antibody 5C23 (antibody, V domains shown, Murine monoclonal antibody) VH: QVQPQESGPELVKPGALVKISCKASGYTFTRYDINWVKKRPGQGLEWIGWIYPGDGSTKYNEKFEGKATLTADKSSSTAYMQLSSLTSENSAVYFCARSDYYGSRSFVYWGQGTLVTVSA VL: DIVLTQSPDSLTVSLGQRATISCRASKSVSTSGYSYMHWYQQKPGQPPKLLIYLASNLESGVPARFSGSGSGTDFTLNIHPVEEEDAATYYCQHSRELPYTFGGGTKLEIK | 1.2 | 2.4 |  |  |  |  |  |
| antibody 2L12 (antibody, V domains shown, Murine monoclonal antibody) VH: QVQLQQSGPELVKPGALVKISCKASGYTFTRYDINWVKKRPGQGLEWIGWIYPGDDSTKYNEKFKGKATLTADKSSSTAYMQLSSLTSENSAVYFCARSDYYGSRSFVYWGQGTLVTVSA VL: DIVLTQSPASLPVSLGQRATISCRASKSVSTSGYSYLHWYQQKPGQPPKLLIYLASNLESGVPARFSGSGSGTDFTLNIHPVEEEDAATYYCQHSGELPYTFGGGTKLEIK | 0.22 | 1.42 | > 67 | > 67 | 4.65 | 0.26 | 0.41 |
| antibody 4P5 (antibody, V domains shown, Murine monoclonal antibody) VH: QVQLQQSGPELVKPGALVKISCKASGYTFTRYDINWVKKRPGQGLEWIGWIYPGDDSTKYNEKFKGKATLTADKSSSTAYMQLSSLTSENSAVYFCARSDYYGSRSFVYWGQGTLVTVSA VL: DILLTQSPASLAVSLGQRATISCRASKSVSTSGYSYMHWYQQKPGQPPKLLIYLASNLESGVPARFSGRGSGTDFTLNIHPVEEEDAATYYCHHSGELPYTFGGGTKLEIK | 0.26 | 0.44 | > 67 | > 67 | 0.39 | 0.347 | 0.465 |
| antibody 1D19 (antibody, V domains shown, Murine monoclonal antibody) VH: QVQPQESGPELVKPGALVKISCKASGYTFTRYDINWMKQRPGQGLEWIGWIYPGDSSTKFNENFKDKATLTADKSSSTAYMQLSSLTSENSTVYFCARSDYYGSRSFTYWGQGTLVTVSA VL: DIVLTQSPASLAVSLGQRATISCRASKSVSTSGYSYMHWYQQKPGQPPKLLIYLASNLESGVPARFSGSGSGTDFTLNIHPVEEEDAATYYCQHSRELPYTFGGGTKLEIK | 1.25 | 2.9 |  |  |  |  | 0.954 |
| antibody 3L3 (antibody, V domains shown, Murine monoclonal antibody) VH: QVQPQESGPELVKPGTLVKISCKASGYTFTSYDINWVKQRPGQGLEWIGWIYPGDGSPKYDEKFKGKATLTADKSSSTAYMQLSSLTSENSAVYFCARSDYYGSRSFVYWGQGTLVTVSA VL: DIVLTQSPASLAVSLGQRATISCRASKSVSTSGYSYVHWYQQKPGQPPKLLIYLASNLESGVPARFSGRGSGTDFTLNIHPVEEEDAATYYCQHSGELPYTFGGGTKLEIK | 1.14 | 2.2 |  |  |  | 3.58 | 1.67 |
| antibody 1C17 (antibody, V domains shown, Murine monoclonal antibody) VH: QVQLQESGPGLVKPSQSLSLTCSVTGYSITSGYYWNWIRQFPGNKLEWMGYINYDGNSNYTPSLKNRISITRDTSKNQFFLKLNSVTPEDTATYYCARKGAYYSNYDSFDVWGTGTTVTVSS VL: DIKMTQSPSSMYASLGERVTITCKASQDINSYLSWVQQKPGKSPKTLIYRANRLVDGVPSRFSGSGSGQDYSLTISSLEYEDMGIYYCLQYDEFPFTFGSGTKLEIK | 0.89 | 3.1 |  |  |  |  |  |
| antibody 3N20 (antibody, V domains shown, Murine monoclonal antibody) VH: QVQLQESGAELARPGASVKLSCKVSGYIFTNYGISWVKQRTGQGLEWIGEIYPRSGNTYYNEKFKGKATLTADMSSSTAYMDLRSLTSEDSAVYFCARHWDGVLDYFDYWGQGTSLTVSS VL: DIVMTQSPSSLSVSAGEKVTMSCKSSQSLLNSGNQKNYLAWYQQKPGQPPKLLIYGASTRESGVPDRFTGSGSGTDFTLTISSVQAEDLAVYYCLNDHSYPFTFGAGTKLELK | 3.3 | 3.52 |  |  |  | 2.46 | > 10 |

Reference: US20210030857A1 (NGM BIOPHARMACEUTICALS, published 2021)
